Test results from article PMC10155811 (2022).

Assays:
BubR1-p = assay: ITC; doubly phosphorylated peptide KLpSPIIEDpSR
BubR1 = assay: ITC; unphosphorylated peptide …
[1] = target: Bub1 peptides encompassing the putative PP2A-B56 binding motif (amino acids 654-FSPIQE-659) (human, UniProt O43683); assay: ITC; doubly phosphorylated Bub1 peptide KFpSPIQEKpSP

B1: B56α (natural protein)
chain: not shown
B1 gave a Kd (BubR1-p) of 0.12 µM, a Kd (BubR1) of 4.6 µM and a Kd [1] of 41 µM.
